From the supplement of paper PMC9112550, “Optimization of the antimicrobial peptide Bac7 by deep mutational scanning” (BMC Biology, 2022)

The sequences below were run on Escherichia coli TOP10 (assay: shrunken log2 fold change of peptide-encoding DNA abundance (4.5 h post-induction vs induction); higher = less antimicrobial activity (less host growth inhibition)). Conditions: time post-induction: 4.5 h; library: site-saturation at positions 5, 18, 19, 20.
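Note: peptides expressed intracellularly from a pBAD plasmid library in pooled LB shake-flask culture, induced with 0.3% L-arabinose, DNA abundance read by NGS, three biological replicates, DESeq2 with apeglm shrinkage.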

In order of rising “shrunken log2 fold change” value:
1. RRIRTRPPRLPRPRPRPLTCPRP  -0.809
2. RRIRPRPPRLPRPRPRPNHNPRP  -0.755
3. RRIRTRPPRLPRPRPRPIHNPRP  -0.714
4. RRIRTRPPRLPRPRPRPGYDPRP  -0.697
5. RRIRIRPPRLPRPRPRPSHKPRP  -0.671
6. RRIRQRPPRLPRPRPRPFILPRP  -0.635
7. RRIRHRPPRLPRPRPRPMNTPRP  -0.616
8. RRIRIRPPRLPRPRPRPVFIPRP  -0.472
9. RRIRHRPPRLPRPRPRPNILPRP  -0.448
10. RRIRCRPPRLPRPRPRPTFTPRP  -0.416
11. RRIRERPPRLPRPRPRPHPMPRP  -0.334
12. RRIRSRPPRLPRPRPRPDINPRP  -0.253
13. RRIRGRPPRLPRPRPRPLYLPRP  -0.221
14. RRIRGRPPRLPRPRPRPYMQPRP  -0.212
15. RRIRSRPPRLPRPRPRPHGMPRP  -0.21
16. RRIRYRPPRLPRPRPRPLLEPRP  -0.17
17. RRIRMRPPRLPRPRPRPYTDPRP  -0.161
18. RRIRTRPPRLPRPRPRPIMSPRP  -0.152
19. RRIRVRPPRLPRPRPRPWGSPRP  -0.137
20. RRIRHRPPRLPRPRPRPANMPRP  -0.126
21. RRIRTRPPRLPRPRPRPIVMPRP  -0.114
22. RRIRERPPRLPRPRPRPGCHPRP  -0.0878
23. RRIRCRPPRLPRPRPRPSHPPRP  -0.0807
24. RRIRSRPPRLPRPRPRPKMYPRP  -0.0737
25. RRIRSRPPRLPRPRPRPQQNPRP  -0.0687
26. RRIRMRPPRLPRPRPRPNFLPRP  -0.0651
27. RRIRARPPRLPRPRPRPRNSPRP  -0.0469
28. RRIRDRPPRLPRPRPRPPIIPRP  -0.0464
29. RRIRFRPPRLPRPRPRPPCIPRP  -0.0411
30. RRIRCRPPRLPRPRPRPEVYPRP  -0.0302
31. RRIRCRPPRLPRPRPRPESQPRP  -0.0239
32. RRIRWRPPRLPRPRPRPAHHPRP  -0.0193
33. RRIRHRPPRLPRPRPRPHEIPRP  -0.0135
34. RRIRFRPPRLPRPRPRPWKTPRP  -0.0119
35. RRIRIRPPRLPRPRPRPWDYPRP  -0.00975
36. RRIRFRPPRLPRPRPRPVELPRP  -0.00737
37. RRIRRRPPRLPRPRPRPSKNPRP  -0.00571
38. RRIRYRPPRLPRPRPRPEFEPRP  -0.00195
39. RRIRYRPPRLPRPRPRPEPWPRP  0.00405
40. RRIRSRPPRLPRPRPRPEFVPRP  0.00503
41. RRIRRRPPRLPRPRPRPRCYPRP  0.00798
42. RRIRQRPPRLPRPRPRPGHTPRP  0.0169
43. RRIRLRPPRLPRPRPRPWQVPRP  0.0253
44. RRIRMRPPRLPRPRPRPEYSPRP  0.0257
45. RRIRSRPPRLPRPRPRPKWWPRP  0.0275
46. RRIRPRPPRLPRPRPRPVKTPRP  0.0289
47. RRIRWRPPRLPRPRPRPFDAPRP  0.029
48. RRIRERPPRLPRPRPRPCVWPRP  0.0291
49. RRIRVRPPRLPRPRPRPWPDPRP  0.033
50. RRIRQRPPRLPRPRPRPHCAPRP  0.0396
51. RRIRQRPPRLPRPRPRPGGIPRP  0.0484
52. RRIRSRPPRLPRPRPRPKSGPRP  0.0485
53. RRIRWRPPRLPRPRPRPSPTPRP  0.0554
54. RRIRGRPPRLPRPRPRPVDSPRP  0.0597
55. RRIRPRPPRLPRPRPRPQEEPRP  0.0679
56. RRIRQRPPRLPRPRPRPWNNPRP  0.079
57. RRIRIRPPRLPRPRPRPRWKPRP  0.0818
58. RRIRCRPPRLPRPRPRPPLHPRP  0.135
59. RRIRDRPPRLPRPRPRPMWMPRP  0.149
60. RRIRWRPPRLPRPRPRPKKAPRP  0.149
61. RRIRVRPPRLPRPRPRPLQPPRP  0.158
62. RRIRWRPPRLPRPRPRPKAMPRP  0.176
63. RRIRTRPPRLPRPRPRPKLSPRP  0.197
64. RRIRARPPRLPRPRPRPKAGPRP  0.213
65. RRIRFRPPRLPRPRPRPPEAPRP  0.232
66. RRIRWRPPRLPRPRPRPRTQPRP  0.276
67. RRIRHRPPRLPRPRPRPNDWPRP  0.339
68. RRIRWRPPRLPRPRPRPTIAPRP  0.367
69. RRIRFRPPRLPRPRPRPTLTPRP  0.445
70. RRIRGRPPRLPRPRPRPDGGPRP  0.468
71. RRIRDRPPRLPRPRPRPEVAPRP  0.563
72. RRIRGRPPRLPRPRPRPKTGPRP  0.692
73. RRIRDRPPRLPRPRPRPMRPPRP  0.804
74. RRIRGRPPRLPRPRPRPTWKPRP  0.847
75. RRIRSRPPRLPRPRPRPVAEPRP  1.28
